Like-named read-outs stand apart in the source and are kept apart here.

The target of experiment [1] is HLA-B*0702 on HLA-B*0702 transfected TAP- T2 cells (human).
Experiment [2] shares this target. Kind of experiment: HLA-B*0702 stabilisation on T2-B*0702 cells, FACS with ME.1 mAb; concentration to reach 20% of maximal fluorescence relative to R10V. As to conditions: scale: ratio of concentrations, tested peptide / R10V reference.
Where [3] appears, read: scale: ratio of concentrations, tested peptide / R10V reference.

B1: G10QT (peptide)
peptide: GPHMPVYPQT
modifications: not checked
Consider B1, for which the RA (relative affinity) in experiment [1] (setting [3]) stood at 22.

B2: T9PL (peptide)
peptide: TPKKIKPPL
modifications: not checked
Take B2: the RA (relative affinity) in experiment [2] came out at 1.29.

B3: Q10AL (peptide)
peptide: QPIQIAIAAL
modifications: not checked
Turning to B3, in experiment [2], the RA (relative affinity) worked out at 6.5.

B4: L9RL (peptide)
peptide: LPLPPLDRL
modifications: not checked
Turning to B4, the RA (relative affinity) in experiment [2] came to 6.13.

B5: Q10QM (peptide)
peptide: QPPLYFVHQM
modifications: not checked
As for B5, the RA (relative affinity) in experiment [1] (setting [3]) amounted to 49.

B6: R10LL (peptide)
peptide: RPVVSTQLLL
modifications: not checked
Turning to B6, the RA (relative affinity) in experiment [2] came to 2.25.

B7: I10VI (peptide)
peptide: IPLGDARLVI
modifications: not checked
For B7, in experiment [2], the RA (relative affinity) is 2.33.

B8: K10KL (peptide)
peptide: KPPLPSVTKL
modifications: not checked
As for B8, the RA (relative affinity) in experiment [2] stood at 3.55.

B9: Y10LF (peptide)
peptide: YPLASLRSLF
modifications: not checked
In turn, B9 displayed an RA (relative affinity) in experiment [1] of 3.25.

B10: M9PT (peptide)
peptide: MPVYPQTPT
modifications: not checked
For B10, in experiment [1] (setting [3]), the RA (relative affinity) was found to be 0.94.

B11: A10VV (peptide)
peptide: APTKAKRRVV
modifications: not checked
Regarding B11, the RA (relative affinity) in experiment [2] came to 1.14.

B12: L9TL (peptide)
peptide: LPPLDRLTL
modifications: not checked
Take B12: the RA (relative affinity) in experiment [2] is 3.51.

B13: Q9VF (peptide)
peptide: QPRSDTHVF
modifications: not checked
In the case of B13, the RA (relative affinity) in experiment [1] (setting [3]) was 1.56.

B14: P10QV (peptide)
peptide: PPQGSQTHQV
modifications: not checked
With B14, the RA (relative affinity) in experiment [2] came to 8.97.

B15: S10EV (peptide)
peptide: SPHPRISSEV
modifications: not checked
Regarding B15, the RA (relative affinity) in experiment [2] stood at 1.11.

B16: H10HI (peptide)
peptide: HPRISSEVHI
modifications: not checked
Turning to B16, the RA (relative affinity) in experiment [2] is 3.7.

B17: S10PV (peptide)
peptide: SPVLRLRPPV
modifications: not checked
Take B17: the RA (relative affinity) in experiment [1] (setting [3]) was determined as 0.85.

B18: A9RL (peptide)
peptide: AAISPVLRL
modifications: not checked
As for B18, the RA (relative affinity) in experiment [1] (setting [3]) stood at 15.

Source of the values: patent US20050163796A1.
